From publication PMC9300119, “Proteins DotY and DotZ modulate the dynamics and localization of the type IVB coupling complex of Legionella pneumophila” (Molecular Microbiology, 2021)

B2: DotM (natural protein)
chain: MYIEMAQQQQQSGSDNSMAPVWIVILLFITAYFVWALAHQYIVSFVFTINIWQARLVNLFLNNQLLANQIYLMQTLDPNTVNWDQMVTVMRAVGDYMRYPVICILVVLAFVLYNSNVTLKYRKTYDMKSLRAQEQFNWPAIMPIVKEDLVSQDVNKGPWAMALTPMEFARKYNLLRKDDALLDNPVPGEEMTAGIRRGDAKRVFTMQLGPYWDGFERCSPQAYALSAVFMARMNRDRDAANNILKVLDKTFVDGKPDFSVARPVMKKYQNSELVQEVVAKHAYVLTVIASLLEAAREDGVVPSSEFLWLKPVDRRLWYMLNCVGRQTPYSEVAGPFAHWKAEKEMGRRSLVPMIDEAIRALEIAVKEVRLTPRQMEELEP
B4: DotZ (natural protein)
chain: MDEIKKDDELSQWLSTYGTITAERILGRYNISLPQDEILEAINIPSSFYRHLLQIPLKNVLNGIVIQQASDYHVYAQKLLIDYLLSGESSKEPDSQGAGTRESLEDERQRLVQLGDEFHKLELEQDNLIASSQASLMKISIDWNTKLETTLSKLNSLYKNTNSKIKKNAIRKALIKAFIHCDLVKDQSQKNKYQLIDKLNQTLAVSVGAELKESILTNLSELFQILEALNTKLDEFTDRTNHLSQQAKSFRTQFYEVILRIIELIKLLPEYKIDPAQDAINREPLYFDRTIGER
notes: also called lpg1549

Key:
[1] = molecular target: B4; experiment: cryo-EM structure; details: both partners purified
[2] = molecular target: T1, DotL with a Strep-tag at the C-terminus (Legionella pneumophila (strain Lp01), UniProt Q5ZYC6 1-783); experiment: affinity purification with mass spectrometry; details: partners not purified
T1 construct: also called DotL_(Strep); DotL_(strep)
T1 sequence: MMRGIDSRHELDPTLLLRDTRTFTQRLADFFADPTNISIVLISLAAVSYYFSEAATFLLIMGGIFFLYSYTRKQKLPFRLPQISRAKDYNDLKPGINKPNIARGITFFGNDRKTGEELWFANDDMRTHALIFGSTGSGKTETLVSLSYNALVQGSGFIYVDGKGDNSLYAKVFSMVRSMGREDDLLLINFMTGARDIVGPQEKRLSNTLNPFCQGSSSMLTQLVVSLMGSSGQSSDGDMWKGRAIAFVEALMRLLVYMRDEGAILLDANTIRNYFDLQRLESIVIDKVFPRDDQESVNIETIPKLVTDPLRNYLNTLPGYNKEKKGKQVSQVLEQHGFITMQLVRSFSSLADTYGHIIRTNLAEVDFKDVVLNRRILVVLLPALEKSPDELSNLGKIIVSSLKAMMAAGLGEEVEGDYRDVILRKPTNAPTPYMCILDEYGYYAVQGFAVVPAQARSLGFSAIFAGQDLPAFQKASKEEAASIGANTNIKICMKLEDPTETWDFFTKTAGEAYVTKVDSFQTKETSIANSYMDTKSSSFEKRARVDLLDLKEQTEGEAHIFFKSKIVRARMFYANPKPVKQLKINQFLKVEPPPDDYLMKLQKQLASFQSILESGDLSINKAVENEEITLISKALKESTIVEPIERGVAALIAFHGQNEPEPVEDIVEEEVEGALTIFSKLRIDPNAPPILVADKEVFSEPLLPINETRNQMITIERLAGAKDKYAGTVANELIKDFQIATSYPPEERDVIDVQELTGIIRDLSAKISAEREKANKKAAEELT

[3] = molecular target: T1, DotL with a Strep-tag at the C-terminus; experiment: cryo-EM structure; details: both partners purified
[4] = molecular target: B2; experiment: cryo-EM structure; details: both partners purified

B1: DotY (natural protein)
chain: MPKYTLPTRDALLKAMQVGETSIEAAEYMATRFEQILTKAKLLPECNDMLEKIKEYAQFVKFKLLSSAQVWSGQERPTSDYQNTQENKAEFLASHLEGLPSGLKLEVAIGDDAKILRGFSSNGKMVEGDQLKTMDGLLEGWLAKNSLAISGGAVVKIDNTGNQTKVDPQEIRQLINDSEKGVAKYFADKGVGMEVAQRTYQEPKALETKREEIRQEIESGAEAPTTQSIR
notes: also called lpg0294
binding result [1]: binds

B2
binding result [2]: binds

B3: DotN (natural protein)
chain: MNVNQTMADNQQRCELKLIASPGSWRLYSARKIDERFKSYEQKIFQRDRYTCQFCGFQARLYQDIVNLDGDYTNNRLSNLVTACCFCAQCFFVESVGVGGYGGGTLIYLPELTQAELNSLCHVLFCAITNDTGYKSSAQNIYRSFKFRSQIVEEKFGEGTSDPAIFGQLMIDSGVNSEEIREKLFKNIRLLPSRAKFRKQIEKWAASALEEIAD
binding result [3]: binds
binding result [1]: binds

B4
binding result [4]: binds
